From patent US20260055205A1 (published 2026)

Key:
human PSMA-Fc [1] = target: T1, human PSMA-Fc (human, UniProt Q04609 44-750); test: Octet
T1 construct: also called Human PSMA-Fc fusion

human PSMA-Fc [2] = target: T1, human PSMA-Fc; test: Octet; remark: listed apart in the source
human PSMA-Fc [3] = target: T1, human PSMA-Fc; test: Octet, PSMA-Fc
Protocol: Binding affinity of select PSMA PTE variants was tested by Octet.

human PSMA [4] = target: T2, human PSMA (human, UniProt Q04609 44-750, limits assumed); test: binding kinetics, uTCE
T2 construct: also called huPSMA; hPSMA

human PSMA [5] = target: T2, human PSMA; test: Octet
cynomolgus monkey PSMA [6] = target: T3, cynomolgus monkey PSMA (cynomolgus monkey, UniProt A0A2K5VNZ0 44-750); test: Octet
T3 construct: also called cyPSMA; cyno PSMA

human CD3 epsilon [7] = target: T4, human CD3 epsilon (human, UniProt P07766 23-126, limits assumed); test: Octet
T4 construct: also called huCD3e

[8] = target: T5, cynomolgus monkey CD3 epsilon (cynomolgus monkey, UniProt Q95LI5 22-117, limits assumed); test: Octet
T5 construct: also called cyCD3e; cyno CD3
T5 sequence (looked up): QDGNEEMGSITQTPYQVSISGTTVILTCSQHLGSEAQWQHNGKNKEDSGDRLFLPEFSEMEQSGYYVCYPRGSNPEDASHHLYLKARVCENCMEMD

human PSMA [9] = target: T2, human PSMA; test: Biacore
cynomolgus monkey PSMA [10] = target: T3, cynomolgus monkey PSMA; test: Biacore
human CD3 epsilon [11] = target: T4, human CD3 epsilon; test: Biacore
[12] = target: T5, cynomolgus monkey CD3 epsilon; test: Biacore
human PSMA [13] = target: T2, human PSMA; test: BLI or SPR
cynomolgus monkey PSMA [14] = target: T3, cynomolgus monkey PSMA; test: BLI or SPR
human CD3 epsilon [15] = target: T4, human CD3 epsilon; test: BLI or SPR
[16] = target: T5, cynomolgus monkey CD3 epsilon; test: BLI or SPR
PSMA on LNCaP cells = PSMA on LNCaP cells (human, UniProt Q04609 1-750); test: cell-based or functional assay
PSMA on 22Rv1 cells = PSMA on 22Rv1 cells (human, UniProt Q04609 1-750); test: cell-based or functional assay
[17] = target: T6, human PSMA on PSMA-transfected CHO cells (human, UniProt Q04609 1-750); test: cell binding, labeled secondary antibody
T6 construct: whole, on cells; also called Hu PSMA CHO
Protocol: Surface binding was detected with a labeled secondary antibody specific for the anti-CD3 scFv.
The binding affinities to both human and cyno PSMA and human and cyno CD3 epsilon were determined.

human PSMA [18] = target: T2, human PSMA; test: relative binding to PSMA, uTCE

T4 sequence (P07766 23-126 limits assumed): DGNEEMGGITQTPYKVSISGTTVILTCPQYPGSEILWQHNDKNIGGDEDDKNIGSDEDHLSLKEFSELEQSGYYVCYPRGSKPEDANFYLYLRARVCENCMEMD
T2 sequence (Q04609 44-750 limits assumed): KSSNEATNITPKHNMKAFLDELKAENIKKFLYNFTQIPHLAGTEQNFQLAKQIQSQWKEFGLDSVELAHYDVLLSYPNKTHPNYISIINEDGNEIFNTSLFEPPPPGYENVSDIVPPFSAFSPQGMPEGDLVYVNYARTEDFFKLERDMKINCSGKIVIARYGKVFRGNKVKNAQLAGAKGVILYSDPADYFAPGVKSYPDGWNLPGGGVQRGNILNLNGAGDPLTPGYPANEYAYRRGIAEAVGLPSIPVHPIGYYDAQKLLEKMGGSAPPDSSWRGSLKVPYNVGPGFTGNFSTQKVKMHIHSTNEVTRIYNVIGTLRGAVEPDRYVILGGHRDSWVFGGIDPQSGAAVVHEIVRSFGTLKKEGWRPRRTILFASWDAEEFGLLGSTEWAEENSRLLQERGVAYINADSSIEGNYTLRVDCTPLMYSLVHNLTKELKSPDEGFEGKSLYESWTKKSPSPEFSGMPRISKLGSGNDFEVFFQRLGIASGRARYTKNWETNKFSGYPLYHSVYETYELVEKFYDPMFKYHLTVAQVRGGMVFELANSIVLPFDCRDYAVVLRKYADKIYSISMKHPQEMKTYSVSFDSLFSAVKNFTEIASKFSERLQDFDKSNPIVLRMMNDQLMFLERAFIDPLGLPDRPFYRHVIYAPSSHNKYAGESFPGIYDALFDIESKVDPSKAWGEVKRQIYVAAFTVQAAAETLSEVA
T1 sequence (Q04609 44-750 limits assumed): as above
PSMA on LNCaP cells, sequence (Q04609 whole entry): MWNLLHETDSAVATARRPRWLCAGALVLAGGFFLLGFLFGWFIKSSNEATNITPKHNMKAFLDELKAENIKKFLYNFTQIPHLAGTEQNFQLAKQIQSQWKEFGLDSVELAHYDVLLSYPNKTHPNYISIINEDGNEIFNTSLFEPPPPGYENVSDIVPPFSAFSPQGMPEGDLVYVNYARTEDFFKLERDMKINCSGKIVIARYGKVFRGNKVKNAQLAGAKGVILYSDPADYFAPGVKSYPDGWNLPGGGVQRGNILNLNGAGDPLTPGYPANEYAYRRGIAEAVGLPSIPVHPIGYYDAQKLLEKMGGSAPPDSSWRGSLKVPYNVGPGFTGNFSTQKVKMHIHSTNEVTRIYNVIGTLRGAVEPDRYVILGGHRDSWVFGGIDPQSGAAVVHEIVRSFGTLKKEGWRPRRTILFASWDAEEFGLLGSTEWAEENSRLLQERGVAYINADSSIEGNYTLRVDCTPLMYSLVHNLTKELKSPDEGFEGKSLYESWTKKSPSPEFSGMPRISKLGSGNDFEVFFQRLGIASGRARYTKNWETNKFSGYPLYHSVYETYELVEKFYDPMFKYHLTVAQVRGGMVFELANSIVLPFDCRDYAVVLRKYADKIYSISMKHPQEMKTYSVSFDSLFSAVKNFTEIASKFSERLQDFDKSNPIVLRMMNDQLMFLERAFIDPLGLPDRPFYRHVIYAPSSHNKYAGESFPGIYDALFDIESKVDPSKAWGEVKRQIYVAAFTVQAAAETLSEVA
PSMA on 22Rv1 cells, sequence (Q04609 whole entry): as above
T6 sequence (Q04609 whole entry): as above

Binder | Kd (human PSMA-Fc [1]) | Kd (human PSMA-Fc [2]) | koff (human PSMA-Fc [2]) | kon (human PSMA-Fc [2]) | Kd (human PSMA [5]) | Kd (cynomolgus monkey PSMA [6]) | Kd (human CD3 epsilon [7]) | Kd [8] | Kd (human PSMA [9]) | Kd (cynomolgus monkey PSMA [10]) | Kd (human CD3 epsilon [11]) | Kd [12] | further results
uTCE from AC3445 (bispecific antibody, also called PSMA.119-CD3.23) QVQLVESGGGVVQPGRSLRLSCAASGRTFGIYVMGWVRQAPGKEREFVAAISWSGSNRKVSDSVKGRFTISRDNSKNTLYLQMNSLRAEDTAVYYCAASNRLYGRTWYDFNESDYWGQGTQVTVSSGGGGSGGGSELVVTQEPSLTVSPGGTVTLTCRSSNGAVTSSNYANWVQQKPGQAPRGLIGGTNKRAPGTPARFSGSLLGGKAALTLSGVQPEDEAVYYCALWYPNLWVFGGGTKLTVLSESATPESGPGTSPGATPESGPGTSESATPEVQLLESGGGIVQPGGSLKLSCAASGFTFNTYAMNWVRQAPGKGLEWVARIRSKYNNYATYYADSVKDRFTISRDDSKNTVYLQMNNLKTEDTAVYYCVRHENFGNSYVSWFAHWGQGTLVTVSS |  |  |  |  | 6.2 nM | 47.5 nM | 34.8 nM | 40 nM |  |  |  |  | 
AMX-500(uTCE) (bispecific antibody, also called uTCE from AC3896; AMX-500-P4 uTCE) QVQLVESGGGVVQPGRSLRLSCAASGRTFGIYVWGWFRQAPGKEREFVGAMSWSGSNRKVSDSVKGRFTISRDNSKNTLYLQMNSLRAEDTAVYYCAASNKEYGRTWYDFNESDYWGQGTQVTVSSGGGGSGGGSELVVTQEPSLTVSPGGTVTLTCRSSNGAVTSSNYANWVQQKPGQAPRGLIGGTNKRAPGTPARFSGSLLGGKAALTLSGVQPEDEAVYYCALWYPNLWVFGGGTKLTVLSESATPESGPGTSPGATPESGPGTSESATPEVQLVESGGGIVQPGGSLRLSCAASGFTFSTYAMNWVRQAPGKGLEWVGRIRTKRNNYATYYADSVKGRFTISRDDSKNTVYLQMNSLKTEDTAVYYCVRHENFGNSYVSWFAHWGQGTLVTVSS |  |  |  |  | 12.1 nM | 201 nM | 33.2 nM | 38.8 nM | 11.7 nM | 230 nM | 12.8 nM | 13.7 nM | Kd (human PSMA [13]): 44 nM; koff (human PSMA [13]): 0.012 s⁻¹; kon (human PSMA [13]): 270000 M⁻¹ s⁻¹; Kd (cynomolgus monkey PSMA [14]): 410 nM; koff (cynomolgus monkey PSMA [14]): 0.043 s⁻¹; kon (cynomolgus monkey PSMA [14]): 100000 M⁻¹ s⁻¹; Kd (human CD3 epsilon [15]): 28 nM; koff (human CD3 epsilon [15]): 0.1 s⁻¹; kon (human CD3 epsilon [15]): 4e+06 M⁻¹ s⁻¹; Kd [16]: 26 nM; koff [16]: 0.1 s⁻¹; kon [16]: 5e+06 M⁻¹ s⁻¹; in vitro cytotoxicity IC50, LNCaP cells, donor 1 (PSMA on LNCaP cells): 0.024 nM; in vitro cytotoxicity IC50, LNCaP cells, donor 2 (PSMA on LNCaP cells): 0.015 nM; in vitro cytotoxicity IC50, LNCaP cells, donor 3 (PSMA on LNCaP cells): 0.016 nM; in vitro cytotoxicity IC50, LNCaP cells, donor 5 (PSMA on LNCaP cells): 0.032 nM; in vitro cytotoxicity IC50, 22Rv1 cells, donor 1 (PSMA on 22Rv1 cells): 0.691 nM; in vitro cytotoxicity IC50, 22Rv1 cells, donor 2 (PSMA on 22Rv1 cells): 1.34 nM; in vitro cytotoxicity IC50, 22Rv1 cells, donor 3 (PSMA on 22Rv1 cells): 1.3 nM; EC50 [17]: 17.4 nM
uTCE of AC2755 (bispecific antibody, V domains shown, TCE with CD3.23; also called VHH41) VH: QVQLVESGGGVVQPGRSLRLSCAASGRTFDVYAMGWVRQAPGKERELVAAINWSGSNKFHADSVKGRFTISRDNSKNTLYLQMNSLKTEDTAMYFCAASTRLYGTTWYEFNDSDYWGQGTQVTVSS |  |  |  |  |  |  |  |  |  |  |  |  | binding result (human PSMA [18]): binds
uTCE of AC2750 (bispecific antibody, V domains shown, TCE with CD3.23; also called VHH36) VH: QVQLVESGGGVVQPGRSLRLSCAASGRTFDVYAMGWFRQAPGKGRELVAAINWSGSNKFHADSVKGRFTISRDNSKNTLYLQMNSLRPEDTAVYFCAASTRLYGTTWYEFNDSDYWGQGTQVTVSS |  |  |  |  |  |  |  |  |  |  |  |  | binding result (human PSMA [18]): binds

The next lines start with results.

Kd (human PSMA-Fc [1]) | Kd (human PSMA-Fc [2]) | koff (human PSMA-Fc [2]) | kon (human PSMA-Fc [2]) | Kd (human PSMA [5]) | Kd (cynomolgus monkey PSMA [6]) | Kd (human CD3 epsilon [7]) | Kd [8] | Kd (human PSMA [9]) | Kd (cynomolgus monkey PSMA [10]) | Kd (human CD3 epsilon [11]) | Kd [12] | Binder | further results
1 nM | 1 nM | 0.00012 s⁻¹ | 120000 M⁻¹ s⁻¹ |  |  |  |  |  |  |  |  | uTCE of AC2591 (PSMA-VHH; CB01H01R3, CD3.23) (bispecific antibody, also called PSMA.2) LTGPATSGSETPGTEVQLVESGGGSVQAGGSLSLSCVASGRTFGIYVMGWFRQAPGKEREFVAAISWSGSNRLVSDSVKGRFTISRENAKNTIYLQMNGLKPEDTANYFCAASNRLYGRTWYDFNESDYWGQGTQVTVSSGGGGSGGGSELVVTQEPSLTVSPGGTVTLTCRSSNGAVTSSNYANWVQQKPGQAPRGLIGGTNKRAPGTPARFSGSLLGGKAALTLSGVQPEDEAVYYCALWYPNLWVFGGGTKLTVLGATPPETGAETESPGETTGGSAESEPPGEGEVQLLESGGGIVQPGGSLKLSCAASGFTFNTYAMNWVRQAPGKGLEWVARIRSKYNNYATYYADSVKDRFTISRDDSKNTVYLQMNNLKTEDTAVYYCVRHENFGNSYVSWFAHWGQGTLVTVSSGTAEAASASGEAGRSANHTPAG | Kd (human PSMA-Fc [3]): 1 nM; koff (human PSMA-Fc [3]): 0.000122 s⁻¹; kon (human PSMA-Fc [3]): 125000 M⁻¹ s⁻¹; Kd (human PSMA [4]): 0.79 nM; koff (human PSMA [4]): 8.7e-05 s⁻¹; kon (human PSMA [4]): 110000 M⁻¹ s⁻¹
 |  |  |  | 13.2 nM | 198 nM | 43 nM | 44.9 nM | 19 nM | 354 nM | 27.3 nM | 26.6 nM | uTCE from AC3928 (bispecific antibody, also called AMX500-P6 uTCE; PSMA.350-CD3.23) QVQLVESGGGVVQPGRSLRLSCAASGRTFGIYVWGWFRQAPGKEREFVGAMSWSGSNRKVSDSVKGRFTISRDNSKNTLYLQMNSLRAEDTAVYYCAASNKEYGRTWYDFNESDYWGQGTQVTVSSGGGGSGGGSELVVTQEPSLTVSPGGTVTLTCRSSNGAVTSSNYANWVQQKPGQAPRGLIGGTNKRAPGTPARFSGSLLGGKAALTLSGVQPEDEAVYYCALWYPNLWVFGGGTKLTVLSESATPESGPGTSPGATPESGPGTSESATPEVQLLESGGGIVQPGGSLKLSCAASGFTFNTYAMNWVRQAPGKGLEWVARIRSKYNNYATYYADSVKDRFTISRDDSKNTVYLQMNNLKTEDTAVYYCVRHENFGNSYVSWFAHWGQGTLVTVSS | 
 |  |  |  | 1.6 nM | 13.1 nM | 26.6 nM | 33.7 nM | 0.5 nM | 13 nM | 9.83 nM | 10.4 nM | uTCE from AC3934 (bispecific antibody, also called AMX500-P7 uTCE; PSMA.262-CD3.228) QVQLVESGGGVVQPGRSLRLSCAASGRTFGIYVWGWVRQAPGKEREFVGAISWSGSNRKVSDSVKGRFTISRDNSKNTLYLQMNSLRAEDTAVYYCAASNKLYGRTWYDFNESDYWGQGTQVTVSSGGGGSGGGSELVVTQEPSLTVSPGGTVTLTCRSSNGAVTSSNYANWVQQKPGQAPRGLIGGTNKRAPGTPARFSGSLLGGKAALTLSGVQPEDEAVYYCALWYPNLWVFGGGTKLTVLSESATPESGPGTSPGATPESGPGTSESATPEVQLVESGGGIVQPGGSLRLSCAASGFTFSTYAMNWVRQAPGKGLEWVGRIRTKRNNYATYYADSVKGRFTISRDDSKNTVYLQMNSLKTEDTAVYYCVRHENFGNSYVSWFAHWGQGTLVTVSS | 
3.5 nM | 3.5 nM | 0.00027 s⁻¹ | 77000 M⁻¹ s⁻¹ |  |  |  |  |  |  |  |  | uTCE of AC3354 (bispecific antibody, also called PSMA.5 (15 mer)) QVQLVESGGGVVQPGRSLRLSCAASGRTFGIYVMGWVRQAPGKEREFVAAISWSGSNRLVSDSVKGRFTISRDNSKNTLYLQMNSLRAEDTAVYYCAASNRLYGRTWYDFNESDYWGQGTQVTVSSGATPPETGAETESPGELVVTQEPSLTVSPGGTVTLTCRSSNGAVTSSNYANWVQQKPGQAPRGLIGGTNKRAPGTPARFSGSLLGGKAALTLSGVQPEDEAVYYCALWYPNLWVFGGGTKLTVLGATPPETGAETESPGETTGGSAESEPPGEGEVQLLESGGGIVQPGGSLKLSCAASGFTFNTYAMNWVRQAPGKGLEWVARIRSKYNNYATYYADSVKDRFTISRDDSKNTVYLQMNNLKTEDTAVYYCVRHENFGNSYVSWFAHWGQGTLVTVSS | 
2.1 nM | 2.1 nM | 0.00022 s⁻¹ | 110000 M⁻¹ s⁻¹ |  |  |  |  |  |  |  |  | uTCE of AC3353 (bispecific antibody, also called PSMA.5 (5 mer)) QVQLVESGGGVVQPGRSLRLSCAASGRTFGIYVMGWVRQAPGKEREFVAAISWSGSNRLVSDSVKGRFTISRDNSKNTLYLQMNSLRAEDTAVYYCAASNRLYGRTWYDFNESDYWGQGTQVTVSSGGGGSELVVTQEPSLTVSPGGTVTLTCRSSNGAVTSSNYANWVQQKPGQAPRGLIGGTNKRAPGTPARFSGSLLGGKAALTLSGVQPEDEAVYYCALWYPNLWVFGGGTKLTVLGATPPETGAETESPGETTGGSAESEPPGEGEVQLLESGGGIVQPGGSLKLSCAASGFTFNTYAMNWVRQAPGKGLEWVARIRSKYNNYATYYADSVKDRFTISRDDSKNTVYLQMNNLKTEDTAVYYCVRHENFGNSYVSWFAHWGQGTLVTVSS | 
